Measured values taken from publication PMC4512254.

Biological target: all other cases (NTSR1 nanodisc preparations other than WT in 100% POPC nanodiscs)
Experiment: radioligand binding

[3H]NTS ([3,11-tyrosyl-3,5-3H(N)]-neurotensin) (peptide)
Kd: 0.5 nM
